In patent US20200010513A1:

Tests used:
Assay in all cases: cell-based or functional assay
[1] = biological target: TM-CIBN-NES-TEV-N-BLITz-1-tTA
[2] = biological target: TM-CIBN-TEV-N-TEVseq-tTA with intact TEVseq without a fusion to the AsLOV2 protein
[3] = biological target: TM-CIBN-NES-TEV-N-BLITz-6-tTA

NES-CRY2PHR-TEV-C was tested. Which SEAP assay, fold gene expression by blue light (HEK293T cells) [1] did it give?
The SEAP assay, fold gene expression by blue light (HEK293T cells) was over 20 fold.

And the SEAP assay, fold change of gene expression by blue light (HEK293T cells) [2]?
Its SEAP assay, fold change of gene expression by blue light (HEK293T cells) is 1.4 fold.

And the SEAP assay, fold gene expression by blue light (HEK293T cells) [3]?
The SEAP assay, fold gene expression by blue light (HEK293T cells) was over 20 fold.
